Measured values published in patent US20260109776A1 (Amgen, published 2026).
Residue numbers refer to the chain shown, from its start.

T1: cynoCD40(1-193) (cynomolgus monkey, UniProt P25942 21-193 (human entry))
T1 construct: Soluble form used in Octet; also called cynomolgus monkey CD40
T1 chain: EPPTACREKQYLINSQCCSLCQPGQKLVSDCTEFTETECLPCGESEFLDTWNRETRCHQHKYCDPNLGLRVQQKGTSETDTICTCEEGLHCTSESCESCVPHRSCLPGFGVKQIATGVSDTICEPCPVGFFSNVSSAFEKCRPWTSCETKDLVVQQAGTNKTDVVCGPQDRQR

T2: cynoMSLN(296-598) (cynomolgus monkey)
T2 chain: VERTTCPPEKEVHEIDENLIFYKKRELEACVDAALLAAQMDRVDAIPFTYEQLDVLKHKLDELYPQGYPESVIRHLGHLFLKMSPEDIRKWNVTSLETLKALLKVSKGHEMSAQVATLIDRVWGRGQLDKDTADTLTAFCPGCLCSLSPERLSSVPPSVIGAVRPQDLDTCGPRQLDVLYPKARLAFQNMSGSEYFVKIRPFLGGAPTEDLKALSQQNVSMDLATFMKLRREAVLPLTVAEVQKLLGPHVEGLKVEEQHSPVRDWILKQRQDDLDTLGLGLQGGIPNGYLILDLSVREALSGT

T3: cynoCD40(1-193) (cynomolgus monkey, UniProt P25942 21-193 (human entry))
T3 construct: also called soluble cynomolgus monkey CD40
T3 chain: T1 chain

B1: Anti-CD40xMSLN IgG-Fab molecule 5966-1 (bispecific antibody)
chain 1: QVQLVESGGGLVKPGGSLRLSCAASGFTFSDYYMTWIRQAPGKGLEWISYISSSGSTIYYADSVKGRFTISRDNAKNSLYLQMNSLRAEDTAVYYCARDRNSHFDYWGQGTLVTVSS
chain 2: DIQMTQSPSSVSASVGDRVTITCRASQGITRWLAWYQQKPGKAPKLLIYAASVLQSGVPSRFSGSGSGTDFTLTISSLQPEDFATYYCQQSNSFPRTFGQGTKVEIK
chain 3: QVQLVESGGGLVKPGGSLRLSCAASEFTFSDYYMSWIRQAPGKGLEWVSYISRSGDTIYYADSVKGRFTISRDNAKNSLYLQMNGLRAEDTAVYYCARDLAAGATGGLDCWGQGTLVTVSS
chain 4: SYELTQPPSVSVSPGQTASITCSGERLGNKYICWYQQKPGQSPVLVIYQDFKRPSGIPERFSGSNSGITATLTISGTQAMDEADYYCQAWDSRTVVFGGGTKLTVLG
B2: Anti-CD40xMSLN IgG-Fab molecule 5991-1 (bispecific antibody)
chain 1: EVQLLESGGGLVQPGGSLRLSCAASGFTFSRNAMSWVRQAPGKGLEWVSATGGSGISTYYADSVKGRFTISRDNSKNTLYLQMNSLRAEDTAVYYCARGYSNSWWYFDYWGQGTLVTVSS
chain 2: QSALTQPASVSGSPGQSITISCTGTSSDVGNYNLVSWYQQHPGKAPKLMIFEVNQRPSGVSNRFSGSKSGTTASLTISGLQAADEADYFCCSYTTSSTYVIFGGGTKLTVLGQPKAAPSVTLFPPSSEELQANKATLVCLISDFYPGAVTVAWKADSSPVKAGVETTTPSKQSNNKYAASSYLSLTPEQWKSHRSYSCQVTHEGSTVEKTVAPTECS
chain 3: B1 chain 1 with T35S, G55E, T57I, A61V, R100V, N101G
chain 4: DIQMTQSPSSVSASVGDRVTITCRASQDISRWLAWYQQKPGKAPKLLISAASRLQSGVPSRFSGSGSGTDFTLTISSLQPEDFAIYYCQQAKSFPRTFGQGTKVEIKR
B3: Anti-CD40xMSLN IgG-Fab molecule 5968-1 (bispecific antibody)
chain 1: B1 chain 1 with T35S, G55E, T57I, A61V, R100V, N101G
chain 2: B2 chain 4
chain 3: B2 chain 1
chain 4: B2 chain 2
B4: Anti-CD40xMSLN IgG-Fab molecule 5970-1 (bispecific antibody)
chain 1: B1 chain 1 with T35S, G55E, T57I, A61V, R100V, N101G
chain 2: B2 chain 4
chain 3: QVQLVESGGGVVQPGRSLRLSCAASGFTFSSHGMHWVRQPPGKGLEWVAVIWYDGSNEYYGDSVKGRFTISRDNSKNTLYLQMNSLRVEDTAVYYCTRGGGHWNYEGHYYGMDVWGQGTTVTVSS
chain 4: QAVPTQPSSLSASPGASASLTCTLRSGINVGSSRIYWYQQKPGSPPQFLLRYTSDSDKLQGSGVPSRFSGSKDASANAGLLLISGLQSEDEADYYCMIWHSSAVVFGGGTKLTVLG
B5: 6043-2 (bispecific antibody)
heavy: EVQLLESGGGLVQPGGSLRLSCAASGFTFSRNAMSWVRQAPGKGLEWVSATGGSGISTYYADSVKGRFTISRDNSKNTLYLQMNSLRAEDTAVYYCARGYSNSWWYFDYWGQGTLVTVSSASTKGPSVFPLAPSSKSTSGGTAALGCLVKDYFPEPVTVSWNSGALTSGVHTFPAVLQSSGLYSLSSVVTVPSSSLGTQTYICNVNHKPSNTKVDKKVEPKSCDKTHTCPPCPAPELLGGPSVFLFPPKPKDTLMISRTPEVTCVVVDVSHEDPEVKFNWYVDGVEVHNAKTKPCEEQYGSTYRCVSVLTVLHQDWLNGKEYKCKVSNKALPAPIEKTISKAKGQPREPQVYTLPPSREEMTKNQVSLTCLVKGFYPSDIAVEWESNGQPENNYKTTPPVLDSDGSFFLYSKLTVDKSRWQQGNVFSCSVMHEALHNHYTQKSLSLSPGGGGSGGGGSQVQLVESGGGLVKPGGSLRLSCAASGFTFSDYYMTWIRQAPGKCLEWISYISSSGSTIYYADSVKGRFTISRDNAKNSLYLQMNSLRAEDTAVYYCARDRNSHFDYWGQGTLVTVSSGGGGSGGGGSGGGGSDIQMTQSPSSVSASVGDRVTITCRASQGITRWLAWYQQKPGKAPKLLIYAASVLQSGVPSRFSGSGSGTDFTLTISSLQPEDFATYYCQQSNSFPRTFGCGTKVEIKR
light: B2 chain 2
notes: IgG-scFv: IgG (CD40) 30A12, scFv (MSLN) 4H6

Legend:
[1] = molecular target: human CD40 on purified human B cells (human, UniProt P25942 21-277); assay: cell-based or functional assay
huCD40(1-193) [2] = molecular target: T4, huCD40(1-193) (human, UniProt P25942 21-193); assay: Octet, soluble antigen
T4 construct: Soluble form used in Octet; also called human CD40; soluble human CD40

huMSLN(296-598) [3] = molecular target: huMSLN(296-598) (human, UniProt Q13421 296-598); assay: Octet, soluble antigen
Target sequence in this assay (Q13421 other isoform, or with tags, fused parts or gaps): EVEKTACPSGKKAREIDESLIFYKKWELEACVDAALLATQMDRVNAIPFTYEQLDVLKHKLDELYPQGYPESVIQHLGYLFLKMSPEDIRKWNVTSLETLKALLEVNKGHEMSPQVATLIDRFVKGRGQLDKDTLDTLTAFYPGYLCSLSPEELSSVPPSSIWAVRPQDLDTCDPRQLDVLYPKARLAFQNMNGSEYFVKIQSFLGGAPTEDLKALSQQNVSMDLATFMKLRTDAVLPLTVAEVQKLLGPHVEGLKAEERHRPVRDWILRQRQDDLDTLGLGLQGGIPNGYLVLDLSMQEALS

cynoCD40(1-193) [4] = molecular target: T1, cynoCD40(1-193); assay: Octet, soluble antigen
cynoMSLN(296-598) = molecular target: T2, cynoMSLN(296-598); assay: Octet
Procedure: (§1) A panel of mesothelin×CD40 bispecific antibodies were generated in the IgG-scFv format (Table 13) and evaluated for binding to soluble forms of human and cynomolgus monkey CD40 and human and cynomolgus monkey mesothelin using the Octet assay (Table 14). Association rate (Kon), disassociation rate (Kdis), and equilibrium binding constant (KD) were calculated. […] These bispecific antibodies were next evaluated for their ability to induce mesothelin-dependent activation of human B cells. CHO cells expressing human mesothelin were seeded into a 96 well plate. The next day varying concentrations of the mesothelin×CD40 IgG-scFv antibodies were added to the wells along with purified human B cells and the plates were incubated for an additional 48 hours. Upregulation of CD86, a marker of CD40-mediated B cell activation, was quantified on B cells by flow cytometry.

cynoCD40(1-193) [5] = molecular target: T3, cynoCD40(1-193); assay: Octet
Procedure: as §1

huMSLN(296-598) [6] = molecular target: T5, huMSLN(296-598) (human, UniProt Q13421 296-598); assay: Octet
T5 construct: also called soluble human mesothelin
Procedure: as §1
T5 sequence (Q13421 other isoform, or with tags, fused parts or gaps): as above

huCD40(1-193) [7] = molecular target: T6, huCD40(1-193) (human, UniProt P25942 21-193); assay: Octet
T6 construct: also called soluble human CD40
Procedure: as §1

human CD40 = human CD40 (human, UniProt P25942 21-277); assay: cell-based or functional assay

Row | Binder | EC50 (nM), CD86 upregulation on human B cells in the presence of CHO cells expressing human mesothelin [1] [nM] | Kd (huCD40(1-193) [2]) [pM] | koff (huCD40(1-193) [2]) [s⁻¹] | kon (huCD40(1-193) [2]) [M⁻¹ s⁻¹] | Kd (huMSLN(296-598) [3]) [pM] | koff (huMSLN(296-598) [3]) [s⁻¹] | kon (huMSLN(296-598) [3]) [M⁻¹ s⁻¹] | Kd (cynoCD40(1-193) [4]) [pM] | koff (cynoCD40(1-193) [4]) [s⁻¹] | kon (cynoCD40(1-193) [4]) [M⁻¹ s⁻¹] | other results
1 | B1 | 0.008 | 700 | 0.000403 | 584000 | 200 | 0.000176 | 878000 | 900 | 0.000358 | 420000 | 
2 | B2 | 0.004 | 400 | 0.000467 | 1.08e+06 | 1300 | 0.000242 | 181000 | 200 | 0.000423 | 1.86e+06 | 
3 | B3 | 0.004 | 400 | 0.000256 | 650000 | 300 | 0.000353 | 1.03e+06 | 700 | 0.000414 | 598000 | 
4 | B4 | 0.005 | 1600 | 0.000395 | 245000 | 300 | 0.000258 | 774000 | 1300 | 0.000208 | 163000 | 
5 | B5 |  |  |  |  |  |  |  |  |  |  | Kd (cynoMSLN(296-598)): 4300 pM; koff (cynoMSLN(296-598)): 0.0012 s⁻¹; kon (cynoMSLN(296-598)): 276000 M⁻¹ s⁻¹; Kd (cynoCD40(1-193) [5]): 900 pM; koff (cynoCD40(1-193) [5]): 0.000407 s⁻¹; kon (cynoCD40(1-193) [5]): 422000 M⁻¹ s⁻¹; Kd (huMSLN(296-598) [6]): 100 pM; koff (huMSLN(296-598) [6]): 3.87e-05 s⁻¹; kon (huMSLN(296-598) [6]): 444000 M⁻¹ s⁻¹; Kd (huCD40(1-193) [7]): 1200 pM; koff (huCD40(1-193) [7]): 0.000407 s⁻¹; kon (huCD40(1-193) [7]): 321000 M⁻¹ s⁻¹; EC50 (nM), CD86 upregulation on human B cells with huMSLN-CHO cells (human CD40): 0.00776 nM
